Measurements taken from patent US20240294570A1 (BRANDEIS UNIVERSITY, published 2024).
One block for each binder: values may come before it. Non-standard residues stand in square brackets, D forms with d. No end group written: not given here. *: point of attachment. pY = N[C@@H](Cc1ccc(OP(=O)(O)O)cc1)C(=O)O; NBD = O=[N+]([O-])c1ccc(*)c2nonc12; βAla = NCCC(=O)O

Target: Alkaline phosphatase (Biomatik, Cat. No. A1130)
Experiment: cell-based or functional assay

half-life of 7 at 100 µM with 0.5 U/mL ALP: 127 min
half-life of 7 at 200 µM with 0.5 U/mL ALP: 112 min
half-life of 7 at 400 µM with 0.5 U/mL ALP: 126 min
Binder: {NBD}-[βAla]LL[pY]LL [phosphopentapeptide 7, NBD-βA-LLpYLL]

half-life of 9 at 100 µM with 0.5 U/mL ALP: 24.6 min
half-life of 9 at 200 µM with 0.5 U/mL ALP: 21.6 min
half-life of 9 at 400 µM with 0.5 U/mL ALP: 27 min
Binder: {NBD-βAla}-[dL][dL][dL][dL][pY] [phosphopentapeptide 9, NBD-βA-llllpY]

half-life of 5 (400 µM) with 0.1 U/mL ALP: 122 min
half-life of 5 at 100 µM with 0.5 U/mL ALP (LC-MS): 27.3 min
half-life of 5 at 200 µM with 0.5 U/mL ALP (LC-MS): 21.6 min
half-life of 5 at 400 µM with 0.5 U/mL ALP (LC-MS): 30.6 min
Binder: {NBD}-[βAla]LLLL[pY] [L-phosphopentapeptide 5, NBD-βA-LLLLpY]
